Target: dnm1l_human DNM1L (UniProt O00429)
Sequence (O00429 whole entry): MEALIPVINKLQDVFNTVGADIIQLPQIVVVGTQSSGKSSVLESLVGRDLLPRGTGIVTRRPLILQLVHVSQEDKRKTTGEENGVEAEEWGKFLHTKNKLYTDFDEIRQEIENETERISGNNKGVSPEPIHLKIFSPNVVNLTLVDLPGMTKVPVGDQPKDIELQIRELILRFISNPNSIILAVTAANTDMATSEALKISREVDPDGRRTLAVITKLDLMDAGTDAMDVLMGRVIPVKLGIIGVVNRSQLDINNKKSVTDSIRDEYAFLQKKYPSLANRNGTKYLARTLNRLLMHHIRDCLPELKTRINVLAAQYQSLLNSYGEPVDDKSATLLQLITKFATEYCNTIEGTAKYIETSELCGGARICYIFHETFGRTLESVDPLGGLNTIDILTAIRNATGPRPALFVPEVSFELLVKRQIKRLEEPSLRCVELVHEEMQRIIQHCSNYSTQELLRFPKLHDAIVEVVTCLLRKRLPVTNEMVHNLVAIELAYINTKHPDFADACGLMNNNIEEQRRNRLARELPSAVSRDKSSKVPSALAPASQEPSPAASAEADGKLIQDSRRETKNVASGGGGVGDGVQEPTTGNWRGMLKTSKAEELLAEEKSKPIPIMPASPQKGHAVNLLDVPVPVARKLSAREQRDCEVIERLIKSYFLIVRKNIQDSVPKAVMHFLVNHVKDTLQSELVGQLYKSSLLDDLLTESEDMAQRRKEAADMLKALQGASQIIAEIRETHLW

effect of a mutation on the interaction	Substance
decreasing interaction	Leucine-rich repeat serine/threonine-protein kinase 2 (Homo sapiens), Q5S007 D1994A
increasing interaction	Leucine-rich repeat serine/threonine-protein kinase 2 (Homo sapiens), Q5S007 G2019S
decreasing interaction	Leucine-rich repeat serine/threonine-protein kinase 2 (Homo sapiens), Q5S007 K1347A
increasing interaction	Leucine-rich repeat serine/threonine-protein kinase 2 (Homo sapiens), Q5S007 R1441C

Source: IntAct's records for PubMed 22228096
